Data from patent US20050180952A1, “Methods for intradermal delivery of therapeutics agents” (priority 2003, published 2005).

Columns and labels:
B 16F10 melanoma cells [1] = assay: Effects of routes of IL-12 administration on mortality of tumor-containing mice; type: in vivo, C57BL/6J mice; details: Day 28
Protocol: (§1) C57BL/6J mice (Charles Rivers Labs, Inc) were inoculated SC with 1×10^6 B 16F10 melanoma cells (ATCC) on the upper right flank. One week following tumor inoculation (Day 7), the mice were randomized and treated with 100 ng rmIL-12 (R&D Systems) in 50 μL PBS solution through either ID or SC injections near tumor inoculation site, or an IP injection (n=25/condition). An additional condition of ID controls was run using 50 μL PBS solution alone. ID treatment was administered with a 34G, 1 mm needle using a modified mantoux method. SC and IP doses were given with standard 25G×¾″ needle. Treatment was continued every other day through Day 13 for a total of four doses. Tumor measurements in mm^2 (length×width) were collected on Days 7, 11, 14, 18, 21, 25 and 28. Blood samples were collected on Days 0, 14, 21 and 28 for IL-12 and IFN-gamma analysis. Draining lymph node and spleen tissue samples were collected from five animals in each condition on Days 14 and 24 for FACS analysis of CD49b (NK) cells. Mortality data were collected on 10 pre-selected animals that were not used for blood sampling or FACS analysis from each condition. Mortality was determined through either natural death or euthanasia due to tumor size of greater than 400 mm^2. Statistical data were calculated using a t-Test: Two-Sample Assuming Unequal Variances. See, e.g., Brunda, M., J. Exp. Med., 178: 1223-1230 (1993) and Leonard et al., Blood, 90: 2541-2548 (1997), both of which are incorporated herein by reference.

B 16F10 melanoma cells [2] = assay: Effects of routes of IL-12 delivery (ID, SC, IP) on tumor growth, 100 ng dose; type: in vivo, C57BL/6J mice
Protocol: as §1

B16F10 melanoma cells = assay: Effects of site of ID delivery (tumor side vs contralateral side) on antitumor activity of IL-12; type: in vivo, C57BL Mice
Protocol: C57BL Mice were inoculated subcutaneously (SC) with 1 million B16F10 melanoma cells (ATCC, Inc.). Treatment was initiated with IL-12 injections 7 days post-inoculation at 100 ng given as an ID dose on the tumor bearing or contralateral side dose. IL-12 doses were repeated every other day for a total of 4 treatments. As a control, the same volume of complete medium (PBS) was injected ID on the tumor bearing side. True negatives were also run in conjunction for serum and tissue samples (n=15/condition). Weights and tumor size were measured on days 7, 11, 14, 18 and 21. Blood samples were also collected at weekly intervals for IL-12 analysis. Draining lymph node and spleen samples were collected at 14 and 24 days for T cell, B cell and NK cell, and GP100 FACS analysis was performed. Two tumor diameters at right angles were measured with digital calipers, and the average tumor size was plotted with respect to days post inoculation with tumor cells.

CD49b (NK) cells = assay: NK cells count in draining lymph node by FACS analysis; type: in vivo, C57BL/6J mice; details: ID delivery vs other conditions
Protocol: C57BL/6J mice (Charles Rivers Labs, Inc) were inoculated SC with 1×10^6 B 16F10 melanoma cells (ATCC) on the upper right flank. One week following tumor inoculation (Day 7), the mice were randomized and treated with 100 ng rmIL-12 (R&D Systems) in 50 μL PBS solution through either ID or SC injections near tumor inoculation site, or an IP injection (n=25/condition). An additional condition of ID controls was run using 50 μL PBS solution alone. ID treatment was administered with a 34G, 1 mm needle using a modified mantoux method. SC and IP doses were given with standard 25G×¾″ needle. Treatment was continued every other day through Day 13 for a total of four doses. […] Mortality was determined through either natural death or euthanasia due to tumor size of greater than 400 mm^2. Statistical data were calculated using a t-Test: Two-Sample Assuming Unequal Variances. […]
The right side superficial inguinal draining lymph node (DLN) and the spleen were excised individually from 5 mice per each treatment group into Petri dishes containing cold HBSS (Invitrogen Life Technologies, Carlsbad, Calif.) for the DLN. […] The washed cells were resuspended in 1 ml of cold FacsFlow buffer and kept on ice in the dark until analyzed by flow cytometry using a FACS Vantage SE. Cell analysis was designed to exclude B cells and quantify CD4+ cells, CD8+ cells, and CD49b+ (NK cells). […]

B1: IL-12: rmIL-12 (R&D Systems), interleukin-12 cytokine given in PBS solution (protein, UniProt P43431 23-215; P43432 23-335, looked up)
Interleukin-12 subunit alpha: RVIPVSGPARCLSQSRNLLKTTDDMVKTAREKLKHYSCTAEDIDHEDITRDQTSTLKTCLPLELHKNESCLATRETSSTTRGSCLPPQKTSLMMTLCLGSIYEDLKMYQTEFQAINAALQNHNHQQIILDKGMLVAIDELMQSLNHNGETLRQKPPVGEADPYRVKMKLCILLHAFSTRVVTINRVMGYLSSA
Interleukin-12 subunit beta: MWELEKDVYVVEVDWTPDAPGETVNLTCDTPEEDDITWTSDQRHGVIGSGKTLTITVKEFLDAGQYTCHKGGETLSHSHLLLHKKENGIWSTEILKNFKNKTFLKCEAPNYSGRFTCSWLVQRNMDLKFNIKSSSSSPDSRAVTCGMASLSAEKVTLDQRDYEKYSVSCQEDVTCPTAEETLPIELALEARQQNKYENYSTSFFIRDIIKPDPPKNLQMKPLKNSQVEVSWEYPDSWSTPHSYFSLKFFVRIQRKKEKMKETEEGCNQKGAFLVEKTSTEVQCKGGNVCVQAQDRYYNSSCSKWACVPCRVRS
Which results are given for B1?
survivability compared to delivery through other routes or control (B 16F10 melanoma cells [1]; ID delivery): greater than 200%; surviving animals (B 16F10 melanoma cells [1]; ID delivery 100 ng): 7 out of 10; surviving animals (B 16F10 melanoma cells [1]; IP delivery 100 ng): 3 out of 10; surviving animals (B 16F10 melanoma cells [1]; SC delivery 100 ng): 3 out of 10; Mean (tumor measurement, length x width) (B 16F10 melanoma cells [2]; Day 18, ID 100 ng): 62.29 mm^2; Mean (tumor measurement, length x width) (B 16F10 melanoma cells [2]; Day 18, IP 100 ng): 158.2458 mm^2; Mean (tumor measurement, length x width) (B 16F10 melanoma cells [2]; Day 18, SC 100 ng): 199.7379 mm^2; Mean (tumor measurement, length x width) (B 16F10 melanoma cells [2]; Day 28, ID 100 ng): 127.2 mm^2; Mean (tumor measurement, length x width) (B 16F10 melanoma cells [2]; Day 28, IP 100 ng): 383.7 mm^2; Mean (tumor measurement, length x width) (B 16F10 melanoma cells [2]; Day 28, SC 100 ng): 352.9 mm^2; inhibition of tumor growth (B 16F10 melanoma cells [2]; ID delivery, 100 ng, only route with effect (FIG. 1)): significant effects on inhibiting the tumor growth; effectiveness relative to other conditions (B16F10 melanoma cells; 100 ng ID contralateral side): not as effective as those dosed near the tumor, but were better than the IP condition; tumor size (B16F10 melanoma cells; 100 ng ID contralateral side (IDcs), Day 14): 75 mm^2; overall tumor growth reduction (B16F10 melanoma cells; 100 ng ID near the tumor injection site): greatest reduction in overall tumor growth; tumor size (B16F10 melanoma cells; 100 ng ID tumor side (IDts), Day 14): 75 mm^2; tumor size increase (B16F10 melanoma cells; 100 ng IDcs, Day 14 to Day 18): 91%; tumor size (B16F10 melanoma cells; 100 ng IDcs, Day 18): 43 mm^2; tumor size increase (B16F10 melanoma cells; 100 ng IDcs, Day 18 to Day 21): 29%; tumor size increase (B16F10 melanoma cells; 100 ng IDts, Day 14 to Day 18): 68%; tumor size (B16F10 melanoma cells; 100 ng IDts, Day 18): 126 mm^2; tumor size increase (B16F10 melanoma cells; 100 ng IDts, Day 18 to Day 21): 14%; tumor size (B16F10 melanoma cells; 100 ng IDts, Day 21): 142 mm^2; final tumor size for IDts smaller than IDcs (B16F10 melanoma cells; 100 ng, Day 21): 23%; NK cells in DLN (CD49b (NK) cells; Day 14 (one day post regimen)): increase in NK cells is apparent; NK cells in DLN (CD49b (NK) cells; Day 24): relative increase above the other conditions
